T1: saposin C (Homo sapiens, UniProt P07602)
T1 construct: Saposin C was expressed in E. coli and purified as described [40]; made in house; host or cells: E. coli
T1 sequence (P07602 311-390 limits assumed): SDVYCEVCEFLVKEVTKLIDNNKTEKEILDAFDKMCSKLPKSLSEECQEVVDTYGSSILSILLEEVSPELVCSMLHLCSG


Experiments:
9 V/null mice [1] = experiment: GC levels in liver, spleen and lung after weekly enzyme injections; assay type: in vivo, mouse; details: for GC lipid levels in lung: 5 and 15 U/kg/wk; for reduction of GC levels in liver: 15 U/kg/wk (before 8 wks); for decrease of GC in lung (suggested trend): variable; for reduction of GC levels in spleen: all three dosing groups; for reduction of GC levels and storage cell numbers in livers / reduction of GC levels and storage cell numbers in spleens: dose dependent, 5, 15 or 60 U/kg/wk, abstract
Excerpt: (§1) Mice were sacrificed one week after the last injection, and sera and organs were collected for serologic studies, GCase activities, GC levels, and quantification of storage cells. At one week after the last injection, the GCase activities in liver, spleen, and lung had returned to background levels (not shown).
(§2) Mice were anesthetized with isoflurane.
GC levels in liver, lung, and spleen from 9 V/null and WT mice were quantified by LC/MS-MS (Lipidomic Core, University of South Carolina). The GC levels were normalized to protein in the same lysates used for GCase activity and expressed as the percentage change relative to the GC levels of matched samples from saline-injected mice. WT lysates were used as a reference. The Student's t-test was used for statistical comparisons.

9 V/null mice [2] = experiment: Storage cell quantification in liver and lung; assay type: in vivo, mouse; details: for numbers of storage cells in lungs (CD68): any dose
Excerpt: as §1, §2
Duplicate tissue sections were fixed in 10% formalin for hematoxylin and eosin (H&E) staining and in 4% paraformaldehyde-PBS, pH 7.4 for immunohistochemistry with CD68 antibody and examined using a Zeiss microscope equipped with SPOT Advance software (SPOT Diagnostic Instruments, Inc.). […] Mice (n = 6–14) in the Vela-, Imig-, or saline-treated groups were used, and the resultant data were analyzed using the Student's t-test.

[3] = pH optimum profile of GCase activity; assay type: biochemical; details: profile pH 4.4–7.2
Method: Vela and Imig were compared for kinetic properties as described. Briefly, the standard GCase activity assay contained final concentrations of 50 mM citrate/phosphate, pH 5.5, 0.25% TC, 0.25% TX, and 4 mM 4MU-Glc in 200 µl. The reactions were stopped after incubation (30–60 min, 37°C) using 0.9 M ethylenediamine, pH 11.0 (100 µl). Standard curves for 4-MU fluorescence yield were generated for each assay with Ex/Em 460/515 nm (Molecular Dynamics SpectraMax GeminXS spectrofluorometer). […] For the reversible competitive inhibitors, Ki was calculated from IC50 = Ki (1+ [I]/[Km]). The IC50 or Ki values for various inhibitors (dNM and its derivatives, CBE, CS, IFG, DNPFG) were determined using 4MU-Glc as substrate. Activities with the NBD-GC substrate were as described. Enzyme assays with saposin C (0–500 nM/0.5 µM BPS) and BPS (0–2 µM) were as described, [40]. Saposin C was expressed in E. coli and purified as described. […] Protease susceptibilities of the two GCases were evaluated by cathepsin D (1–2 µM) digestion in 25 mM sodium acetate, pH 4.8, 50 mM NaCl, 1.25 mM EDTA, 1.25 mM DTT using 200 ng of Vela or Imig at 37°C for 4 h. […] The amounts of intact enzyme were determined from density measurements on immunoblots and were compared to the initial amounts. […]

[4] = Quantification of functional active sites with single turnover substrate DNPFG; assay type: biochemical; details: for Active sites, 2,4-DNPFG: mole ratio of 2,4-DNP released and enzyme protein, mean ± SE, n = 8
Method: Catalytic activities of Vela and Imig were analyzed with 4MU-Glc and GC substrates. Vela had ∼6–10% reproducibly greater activity compared to Imig (Table 1). The functional active sites of these two enzymes were quantified using the single turnover substrate DNPFG, and consistent with the hydrolytic activity, ∼5–7% more functional active sites were quantified with Vela than with Imig (Table 1).
Vela and Imig were compared for kinetic properties as described. Briefly, the standard GCase activity assay contained final concentrations of 50 mM citrate/phosphate, pH 5.5, 0.25% TC, 0.25% TX, and 4 mM 4MU-Glc in 200 µl. The reactions were stopped after incubation (30–60 min, 37°C) using 0.9 M ethylenediamine, pH 11.0 (100 µl). Standard curves for 4-MU fluorescence yield were generated for each assay with Ex/Em 460/515 nm (Molecular Dynamics SpectraMax GeminXS spectrofluorometer). […] For the reversible competitive inhibitors, Ki was calculated from IC50 = Ki (1+ [I]/[Km]). The IC50 or Ki values for various inhibitors (dNM and its derivatives, CBE, CS, IFG, DNPFG) were determined using 4MU-Glc as substrate. Activities with the NBD-GC substrate were as described. Enzyme assays with saposin C (0–500 nM/0.5 µM BPS) and BPS (0–2 µM) were as described, [40]. Saposin C was expressed in E. coli and purified as described. For thermostability assessments, equal amounts of Vela and Imig activities were added to 50 mM citrate/phosphate, pH 7.4, with or without human/mouse serum, and incubated for 0–240 min at 25 or 37°C. The pH optimum profiles were developed using 50 mM citrate/phosphate, pH 4.4–7.2. Protease susceptibilities of the two GCases were evaluated by cathepsin D (1–2 µM) digestion in 25 mM sodium acetate, pH 4.8, 50 mM NaCl, 1.25 mM EDTA, 1.25 mM DTT using 200 ng of Vela or Imig at 37°C for 4 h. All assays were conducted in triplicate and repeated at least twice. The amounts of intact enzyme were determined from density measurements on immunoblots and were compared to the initial amounts. […]

saposin C = biological target: T1, saposin C; experiment: Activation of GCase by saposin C in detergent-free system; assay type: biochemical; details: for saposin C concentration of maximum activation: in the presence of 0.5 µM BPS; for increase of activity with saposin C: saposin C 0 to 500 nM, detergent-free
Method: (§3) Activation of Vela and Imig by the negatively charged lipid, BPS, and saposin C was determined in a detergent-free system with varying concentrations of either agent. The activities of both enzymes increased by 5- to 6-fold or 15- to 17-fold with saposin C (0 to 500 nM) or BPS (0 to 2 µM), respectively. […] Similarly, in the absence of saposin C, both enzymes reacted maximal activation with 0.5 µM of BPS. No significant differences were found in these responses (p = 0.5875–0.8473).
(§4) Vela and Imig were compared for kinetic properties as described. Briefly, the standard GCase activity assay contained final concentrations of 50 mM citrate/phosphate, pH 5.5, 0.25% TC, 0.25% TX, and 4 mM 4MU-Glc in 200 µl. The reactions were stopped after incubation (30–60 min, 37°C) using 0.9 M ethylenediamine, pH 11.0 (100 µl). Standard curves for 4-MU fluorescence yield were generated for each assay with Ex/Em 460/515 nm (Molecular Dynamics SpectraMax GeminXS spectrofluorometer). […] For the reversible competitive inhibitors, Ki was calculated from IC50 = Ki (1+ [I]/[Km]). The IC50 or Ki values for various inhibitors (dNM and its derivatives, CBE, CS, IFG, DNPFG) were determined using 4MU-Glc as substrate. Activities with the NBD-GC substrate were as described. Enzyme assays with saposin C (0–500 nM/0.5 µM BPS) and BPS (0–2 µM) were as described, [40]. Saposin C was expressed in E. coli and purified as described. For thermostability assessments, equal amounts of Vela and Imig activities were added to 50 mM citrate/phosphate, pH 7.4, with or without human/mouse serum, and incubated for 0–240 min at 25 or 37°C. The pH optimum profiles were developed using 50 mM citrate/phosphate, pH 4.4–7.2. Protease susceptibilities of the two GCases were evaluated by cathepsin D (1–2 µM) digestion in 25 mM sodium acetate, pH 4.8, 50 mM NaCl, 1.25 mM EDTA, 1.25 mM DTT using 200 ng of Vela or Imig at 37°C for 4 h. All assays were conducted in triplicate and repeated at least twice. The amounts of intact enzyme were determined from density measurements on immunoblots and were compared to the initial amounts. The ratios of intact enzyme with and without cathepsin D were used as indicators of the enzyme's proteolytic susceptibility.

[5] = pH- and thermostability of enzyme activity in buffer or serum; assay type: physicochemical; details: for irreversible loss of activity by 2 h / loss of activity by 4 h: pH 7.4, citrate/phosphate buffer or mouse or human serum, 37 or 25°C
Method: as §4

[6] = Activation of GCase by BPS in detergent-free system; assay type: biochemical; details: for increase of activity with BPS: BPS 0 to 2 µM, detergent-free; for BPS concentration of maximal activation: in the absence of saposin C
Method: as §3, §4

[7] = 5 or 15 U/kg/wk, week 4 or 8, compared to saline-injected controls

Row | Molecule | GC lipid levels in lung (9 V/null mice [1]) | decrease of GC levels in liver (9 V/null mice [1]; [7]) | reduction of GC levels in liver (9 V/null mice [1]) [%] | decrease of GC in lung (suggested trend) (9 V/null mice [1]; 60 U/kg/wk, 8 wks) [%] | decrease of GC levels in liver (9 V/null mice [1]; 60 U/kg/wk, week 4) [%] | reduction of GC levels in spleen (9 V/null mice [1]; 4 wks) | reduction of GC levels in spleen (9 V/null mice [1]; 8 wks) | reduction of GC levels and storage cell numbers in livers (9 V/null mice [1]) | reduction of GC levels and storage cell numbers in spleens (9 V/null mice [1]) | numbers of storage cells in lungs (CD68) (9 V/null mice [2]) | pH of peak activity [3] | Active sites, 2,4-DNPFG [4] [%] | saposin C concentration of maximum activation (saposin C) [nM] | increase of activity with saposin C (saposin C) | t1/2 of GCase activity ([5]; 25°C + h-serum) [h] | t1/2 of GCase activity ([5]; 25°C + m-serum) [h] | t1/2 of GCase activity ([5]; 25°C in CP, pH 7.4) [h] | t1/2 of GCase activity ([5]; 37°C + h-serum) [h] | t1/2 of GCase activity ([5]; 37°C + m-serum) [h] | t1/2 of GCase activity ([5]; 37°C in CP, pH 7.4) [h] | further results
1 | velaglucerase alfa (protein, N-linked oligosaccharides with higher α-mannosyl content (predominant number of mannoses is 9)) ARPCIPKSFGYSSVVCVCNATYCDSFDPPTFPALGTFSRYESTRSGRRMELSMGPIQANHTGTGLLLTLQPEQKFQKVKGFGGAMTDAAALNILALSPPAQNLLLKSYFSEEGIGYNIIRVPMASCDFSIRTYTYADTPDDFQLHNFSLPEEDTKLKIPLIHRALQLAQRPVSLLASPWTSPTWLKTNGAVNGKGSLKGQPGDIYHQTWARYFVKFLDAYAEHKLQFWAVTAENEPSAGLLSGYPFQCLGFTPEHQRDFIARDLGPTLANSTHHNVRLLMLDDQRLLLPHWAKVVLTDPEAAKYVHGIAVHWYLDFLAPAKATLGETHRLFPNTMLFASEACVGSKFWEQSVRLGSWDRGMQYSHSIITNLLYHVVGWTDWNLALNPEGGPNWVRNFVDSPIIVDITKDTFYKQPMFYHLGHFSKFIPEGSQRVGLVASQKNDLDAVALMHPDGSAVVVVLNRSSKDVPLTIKDPAVGFLETISPGYSIHTYLWRRQ | unchanged | 50–70% | ~66 | ~10 | ~85 | 10–15% | 20–30% | 60–95% | 10–30% | not different from saline control | 5.4–5.6 | 97.4±0.6 | 200 | 5- to 6 fold | 2.933 ± 0.0978 | 3.235 ± 0.102 | 1.977 ± 0.0318 | 2.117 ± 0.169 | 2.31 ± 0.0637 | 1.82 ± 0.0025 | difference in cellular clearance compared to Imig (9 V/null mice [2]; lungs, Gaucher cells, not significant): ~10%; more functional active sites than Imig ([4]; DNPFG): 5–7%; irreversible loss of activity by 2 h [5]: > 50%; loss of activity by 4 h [5]: 70–85%; increase of activity with BPS [6]: 15- to 17 fold; BPS concentration of maximal activation [6]: 0.5 µM
2 | imiglucerase (protein, short N-linked oligosaccharide chains with ~3 exposed α-mannosyl residues) ARPCIPKSFGYSSVVCVCNATYCDSFDPPTFPALGTFSRYESTRSGRRMELSMGPIQANHTGTGLLLTLQPEQKFQKVKGFGGAMTDAAALNILALSPPAQNLLLKSYFSEEGIGYNIIRVPMASCDFSIRTYTYADTPDDFQLHNFSLPEEDTKLKIPLIHRALQLAQRPVSLLASPWTSPTWLKTNGAVNGKGSLKGQPGDIYHQTWARYFVKFLDAYAEHKLQFWAVTAENEPSAGLLSGYPFQCLGFTPEHQRDFIARDLGPTLANSTHHNVRLLMLDDQRLLLPHWAKVVLTDPEAAKYVHGIAVHWYLDFLAPAKATLGETHRLFPNTMLFASEACVGSKFWEQSVRLGSWDRGMQYSHSIITNLLYHVVGWTDWNLALNPEGGPNWVRNFVDSPIIVDITKDTFYKQPMFYHLGHFSKFIPEGSQRVGLVASQKNDLDAVALMHPDGSAVVVVLNRSSKDVPLTIKDPAVGFLETISPGYSIHTYLWHRQ | unchanged | 50–70% | ~55 | ~10 | ~70 | 10–15% | 20–30% | 60–95% | 10–30% | not different from saline control | 5.4–5.6 | 91.6±2.2 | 200 | 5- to 6 fold | 3.107 ± 0.106 | 3.587 ± 0.253 | 2.04 ± 0.129 | 2.125 ± 0.169 | 2.455 ± 0.124 | 1.858 ± 0.0413 | irreversible loss of activity by 2 h [5]: > 50%; loss of activity by 4 h [5]: 70–85%; increase of activity with BPS [6]: 15- to 17 fold; BPS concentration of maximal activation [6]: 0.5 µM

Source: article PMC2873993, “Comparative Therapeutic Effects of Velaglucerase Alfa and Imiglucerase in a Gaucher Disease Mouse Model” (PLoS ONE, 2010)
